According to patent US20200024322A1 (Eli Lilly, published 2020):
Numbered stars: 1 amine (or outer) side, 2 acyl side, 3 side chain; on linkers, the order of the positions; unused ones are H or OH. Square brackets hold non-standard residues; d marks the D form. Side chains are listed from the residue outwards. Ends that are not written are not given here. * marks the point of attachment. C20 diacid = O=C(O)CCCCCCCCCCCCCCCCCCC(=O)*; C18 diacid = O=C(O)CCCCCCCCCCCCCCCCC(=O)*; γGlu = O=C(O)[C@H](CCC(=O)[*:2])N[*:1]; AEEA = NCCOCCOCC(=O)O; Aib = CC(C)(N)C(=O)O

T1: human GIP receptor (human, UniProt P48546 22-466)
T1 construct: whole, on cells; also called hGIPR; hGIP-R
T1 sequence (looked up): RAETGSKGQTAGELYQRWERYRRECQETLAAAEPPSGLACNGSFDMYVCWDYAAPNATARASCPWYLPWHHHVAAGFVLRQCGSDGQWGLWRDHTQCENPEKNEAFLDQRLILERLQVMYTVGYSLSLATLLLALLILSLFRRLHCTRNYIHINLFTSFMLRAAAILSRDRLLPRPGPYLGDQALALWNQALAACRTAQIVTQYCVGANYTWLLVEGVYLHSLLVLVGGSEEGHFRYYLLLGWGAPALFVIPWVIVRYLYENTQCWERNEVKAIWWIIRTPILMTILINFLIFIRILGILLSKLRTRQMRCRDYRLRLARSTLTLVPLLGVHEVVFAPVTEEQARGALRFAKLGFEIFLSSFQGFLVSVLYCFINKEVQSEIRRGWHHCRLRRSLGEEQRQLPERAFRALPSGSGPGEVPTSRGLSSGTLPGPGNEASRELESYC

B1: Example 272 (peptide)
peptide: Y[Aib]EGTFTSDYSILLDKK([AEEA-AEEA-γGlu-C18 diacid])AQ[Aib]AFIEYLIAGGPSSG-NH2
modifications: N-terminus assumed
SMILES: CC[C@H](C)[C@H](NC(=O)[C@H](CC(C)C)NC(=O)[C@H](Cc1ccc(O)cc1)NC(=O)[C@H](CCC(=O)O)NC(=O)[C@@H](NC(=O)[C@H](Cc1ccccc1)NC(=O)[C@H](C)NC(=O)C(C)(C)NC(=O)[C@H](CCC(N)=O)NC(=O)[C@H](C)NC(=O)[C@H](CCCCNC(=O)COCCOCCNC(=O)COCCOCCNC(=O)CC[C@H](NC(=O)CCCCCCCCCCCCCCCCC(=O)O)C(=O)O)NC(=O)[C@H](CCCCN)NC(=O)[C@H](CC(=O)O)NC(=O)[C@H](CC(C)C)NC(=O)[C@H](CC(C)C)NC(=O)[C@@H](NC(=O)[C@H](CO)NC(=O)[C@H](Cc1ccc(O)cc1)NC(=O)[C@H](CC(=O)O)NC(=O)[C@H](CO)NC(=O)[C@@H](NC(=O)[C@H](Cc1ccccc1)NC(=O)[C@@H](NC(=O)CNC(=O)[C@H](CCC(=O)O)NC(=O)C(C)(C)NC(=O)[C@@H](N)Cc1ccc(O)cc1)[C@@H](C)O)[C@@H](C)O)[C@@H](C)CC)[C@@H](C)CC)C(=O)N[C@@H](C)C(=O)NCC(=O)NCC(=O)N1CCC[C@H]1C(=O)N[C@@H](CO)C(=O)N[C@@H](CO)C(=O)NCC(N)=O
B2: Example 317 (peptide)
peptide: Y[Aib]EGTFTSDYSILLDKK([AEEA-AEEA-γGlu-C20 diacid])AQ[Aib]AFIEYLIAGGPSSG-NH2
modifications: N-terminus assumed
SMILES: CC[C@H](C)[C@H](NC(=O)[C@H](CC(C)C)NC(=O)[C@H](Cc1ccc(O)cc1)NC(=O)[C@H](CCC(=O)O)NC(=O)[C@@H](NC(=O)[C@H](Cc1ccccc1)NC(=O)[C@H](C)NC(=O)C(C)(C)NC(=O)[C@H](CCC(N)=O)NC(=O)[C@H](C)NC(=O)[C@H](CCCCNC(=O)COCCOCCNC(=O)COCCOCCNC(=O)CC[C@H](NC(=O)CCCCCCCCCCCCCCCCCCC(=O)O)C(=O)O)NC(=O)[C@H](CCCCN)NC(=O)[C@H](CC(=O)O)NC(=O)[C@H](CC(C)C)NC(=O)[C@H](CC(C)C)NC(=O)[C@@H](NC(=O)[C@H](CO)NC(=O)[C@H](Cc1ccc(O)cc1)NC(=O)[C@H](CC(=O)O)NC(=O)[C@H](CO)NC(=O)[C@@H](NC(=O)[C@H](Cc1ccccc1)NC(=O)[C@@H](NC(=O)CNC(=O)[C@H](CCC(=O)O)NC(=O)C(C)(C)NC(=O)[C@@H](N)Cc1ccc(O)cc1)[C@@H](C)O)[C@@H](C)O)[C@@H](C)CC)[C@@H](C)CC)C(=O)N[C@@H](C)C(=O)NCC(=O)NCC(=O)N1CCC[C@H]1C(=O)N[C@@H](CO)C(=O)N[C@@H](CO)C(=O)NCC(N)=O
B3: Example 318 (peptide)
peptide: Y[Aib]EGTFTSDYSILLDKK([AEEA-AEEA-γGlu-C20 diacid])AQ[Aib]EFIEYLIAGGPSSG-NH2
modifications: N-terminus assumed
SMILES: CC[C@H](C)[C@H](NC(=O)[C@H](CC(C)C)NC(=O)[C@H](Cc1ccc(O)cc1)NC(=O)[C@H](CCC(=O)O)NC(=O)[C@@H](NC(=O)[C@H](Cc1ccccc1)NC(=O)[C@H](CCC(=O)O)NC(=O)C(C)(C)NC(=O)[C@H](CCC(N)=O)NC(=O)[C@H](C)NC(=O)[C@H](CCCCNC(=O)COCCOCCNC(=O)COCCOCCNC(=O)CC[C@H](NC(=O)CCCCCCCCCCCCCCCCCCC(=O)O)C(=O)O)NC(=O)[C@H](CCCCN)NC(=O)[C@H](CC(=O)O)NC(=O)[C@H](CC(C)C)NC(=O)[C@H](CC(C)C)NC(=O)[C@@H](NC(=O)[C@H](CO)NC(=O)[C@H](Cc1ccc(O)cc1)NC(=O)[C@H](CC(=O)O)NC(=O)[C@H](CO)NC(=O)[C@@H](NC(=O)[C@H](Cc1ccccc1)NC(=O)[C@@H](NC(=O)CNC(=O)[C@H](CCC(=O)O)NC(=O)C(C)(C)NC(=O)[C@@H](N)Cc1ccc(O)cc1)[C@@H](C)O)[C@@H](C)O)[C@@H](C)CC)[C@@H](C)CC)C(=O)N[C@@H](C)C(=O)NCC(=O)NCC(=O)N1CCC[C@H]1C(=O)N[C@@H](CO)C(=O)N[C@@H](CO)C(=O)NCC(N)=O
B4: Example 321 (peptide)
peptide: Y[Aib]EGTFTSDYSILLDKK([AEEA-AEEA-γGlu-C18 diacid])AQ[Aib]TFIEYLIEGGPSSG-NH2
modifications: N-terminus assumed
SMILES: CC[C@H](C)[C@H](NC(=O)[C@H](CC(C)C)NC(=O)[C@H](Cc1ccc(O)cc1)NC(=O)[C@H](CCC(=O)O)NC(=O)[C@@H](NC(=O)[C@H](Cc1ccccc1)NC(=O)[C@@H](NC(=O)C(C)(C)NC(=O)[C@H](CCC(N)=O)NC(=O)[C@H](C)NC(=O)[C@H](CCCCNC(=O)COCCOCCNC(=O)COCCOCCNC(=O)CC[C@H](NC(=O)CCCCCCCCCCCCCCCCC(=O)O)C(=O)O)NC(=O)[C@H](CCCCN)NC(=O)[C@H](CC(=O)O)NC(=O)[C@H](CC(C)C)NC(=O)[C@H](CC(C)C)NC(=O)[C@@H](NC(=O)[C@H](CO)NC(=O)[C@H](Cc1ccc(O)cc1)NC(=O)[C@H](CC(=O)O)NC(=O)[C@H](CO)NC(=O)[C@@H](NC(=O)[C@H](Cc1ccccc1)NC(=O)[C@@H](NC(=O)CNC(=O)[C@H](CCC(=O)O)NC(=O)C(C)(C)NC(=O)[C@@H](N)Cc1ccc(O)cc1)[C@@H](C)O)[C@@H](C)O)[C@@H](C)CC)[C@@H](C)O)[C@@H](C)CC)C(=O)N[C@@H](CCC(=O)O)C(=O)NCC(=O)NCC(=O)N1CCC[C@H]1C(=O)N[C@@H](CO)C(=O)N[C@@H](CO)C(=O)NCC(N)=O
B5: Example 322 (peptide)
peptide: Y[Aib]EGTFTSDYSILLDKK([AEEA-AEEA-γGlu-C18 diacid])AQ[Aib]HFIEYLIEGGPSSG-NH2
modifications: N-terminus assumed
SMILES: CC[C@H](C)[C@H](NC(=O)[C@H](CC(C)C)NC(=O)[C@H](Cc1ccc(O)cc1)NC(=O)[C@H](CCC(=O)O)NC(=O)[C@@H](NC(=O)[C@H](Cc1ccccc1)NC(=O)[C@H](Cc1c[nH]cn1)NC(=O)C(C)(C)NC(=O)[C@H](CCC(N)=O)NC(=O)[C@H](C)NC(=O)[C@H](CCCCNC(=O)COCCOCCNC(=O)COCCOCCNC(=O)CC[C@H](NC(=O)CCCCCCCCCCCCCCCCC(=O)O)C(=O)O)NC(=O)[C@H](CCCCN)NC(=O)[C@H](CC(=O)O)NC(=O)[C@H](CC(C)C)NC(=O)[C@H](CC(C)C)NC(=O)[C@@H](NC(=O)[C@H](CO)NC(=O)[C@H](Cc1ccc(O)cc1)NC(=O)[C@H](CC(=O)O)NC(=O)[C@H](CO)NC(=O)[C@@H](NC(=O)[C@H](Cc1ccccc1)NC(=O)[C@@H](NC(=O)CNC(=O)[C@H](CCC(=O)O)NC(=O)C(C)(C)NC(=O)[C@@H](N)Cc1ccc(O)cc1)[C@@H](C)O)[C@@H](C)O)[C@@H](C)CC)[C@@H](C)CC)C(=O)N[C@@H](CCC(=O)O)C(=O)NCC(=O)NCC(=O)N1CCC[C@H]1C(=O)N[C@@H](CO)C(=O)N[C@@H](CO)C(=O)NCC(N)=O
B6: Example 267 (peptide)
peptide: Y[Aib]EGTFTSDYSILLDKK([AEEA-AEEA-γGlu-C18 diacid])AQ[Aib]AFIEYLIEGG-NH2
modifications: N-terminus assumed
SMILES: CC[C@H](C)[C@H](NC(=O)[C@H](CC(C)C)NC(=O)[C@H](Cc1ccc(O)cc1)NC(=O)[C@H](CCC(=O)O)NC(=O)[C@@H](NC(=O)[C@H](Cc1ccccc1)NC(=O)[C@H](C)NC(=O)C(C)(C)NC(=O)[C@H](CCC(N)=O)NC(=O)[C@H](C)NC(=O)[C@H](CCCCNC(=O)COCCOCCNC(=O)COCCOCCNC(=O)CC[C@H](NC(=O)CCCCCCCCCCCCCCCCC(=O)O)C(=O)O)NC(=O)[C@H](CCCCN)NC(=O)[C@H](CC(=O)O)NC(=O)[C@H](CC(C)C)NC(=O)[C@H](CC(C)C)NC(=O)[C@@H](NC(=O)[C@H](CO)NC(=O)[C@H](Cc1ccc(O)cc1)NC(=O)[C@H](CC(=O)O)NC(=O)[C@H](CO)NC(=O)[C@@H](NC(=O)[C@H](Cc1ccccc1)NC(=O)[C@@H](NC(=O)CNC(=O)[C@H](CCC(=O)O)NC(=O)C(C)(C)NC(=O)[C@@H](N)Cc1ccc(O)cc1)[C@@H](C)O)[C@@H](C)O)[C@@H](C)CC)[C@@H](C)CC)C(=O)N[C@@H](CCC(=O)O)C(=O)NCC(=O)NCC(N)=O

What follows are binders tested against T1, human GIP receptor (assay: [125I]-GIP competition SPA, hGIPR membranes).

| Ki | Binder |
| --- | --- |
| 0.0353 nM | B1 |
| 0.0215 nM | B2 |
| 0.0452 nM | B3 |
| 0.064 nM | B4 |
| 0.175 nM | B5 |
| 0.0628 nM | B6 |

These binders were tested against T2, human GLP-1 receptor (human, UniProt P43220 24-463) (assay: [125I]-GLP-1 competition SPA, hGLP-1R membranes).
T2 construct: whole, on cells; also called hGLP-1R; hGLP1R
In short: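 Competition binding in 25 mM HEPES pH 7.4, 2.5 mM CaCl₂, 1 mM MgCl₂, 0.1% bacitracin, 0.003% TWEEN-20, EDTA-free protease inhibitors. IC₅₀ from four-parameter nonlinear fit; Kᵢ given as geometric mean ± SEM, n = independent replicates on different days.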

| Ki | Binder |
| --- | --- |
| 1.22 nM | B1 |
| 2.63 nM | B2 |
| 7.52 nM | B3 |
| 4.2 nM | B4 |
| 2.31 nM | B5 |
| 1.57 nM | B6 |

Each binder was assayed against T3, human glucagon receptor (human, UniProt P47871 26-477) (assay: [125I]-Gcg competition SPA, hGcgR membranes).
T3 construct: whole, on cells; also called hGcgR; GcgR
T3 sequence (P47871 26-477): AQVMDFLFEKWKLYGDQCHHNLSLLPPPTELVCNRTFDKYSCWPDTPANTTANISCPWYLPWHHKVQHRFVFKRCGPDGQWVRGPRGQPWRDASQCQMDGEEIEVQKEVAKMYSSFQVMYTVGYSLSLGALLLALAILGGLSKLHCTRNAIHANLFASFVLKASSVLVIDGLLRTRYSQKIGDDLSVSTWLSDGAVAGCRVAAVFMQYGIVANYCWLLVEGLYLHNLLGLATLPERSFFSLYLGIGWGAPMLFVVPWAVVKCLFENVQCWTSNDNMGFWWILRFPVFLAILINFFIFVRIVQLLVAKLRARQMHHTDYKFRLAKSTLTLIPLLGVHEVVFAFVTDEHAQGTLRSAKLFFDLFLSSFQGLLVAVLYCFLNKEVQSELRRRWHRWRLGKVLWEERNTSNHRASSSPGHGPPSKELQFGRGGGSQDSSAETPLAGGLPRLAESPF

| Ki | Binder |
| --- | --- |
| 550 nM | B1 |
| 253 nM | B2 |
| 730 nM | B3 |
| 770 nM | B4 |
| 1030 nM | B5 |
| 349 nM | B6 |
